Test system: human embryonic stem cells (hESCs)
Assay: Other growth factors in place of bFGF for undifferentiated growth of hESCs
Format: cell-based
Conditions: feeder- and serum-free conditions
Method: All the growth factors were dissolved in a PBS buffer that contained 0.5% BSA, 1 mM DTT (Dithiothreitol) and 10% glyceral as a 10 μg/ml (500×) stock solution and stored in aliquots at −80° C. These factors were added individually to the hESC cultures at a concentration of 20 ng/ml, in the absence of bFGF or in the presence of a low concentration of bFGF (4 ng/ml). Seven days after seeding undifferentiated hESCs on laminin/collagen-coated plates, the cultures were examined.

B1: activin-A: human growth factor tested in place of bFGF (protein, UniProt P08476 311-426, looked up)
Inhibin beta A chain: GLECDGKVNICCKKQFFVSFKDIGWNDWIIAPSGYHANYCEGECPSHIAGTSGSSLSFHSTVINHYRMRGHSPFANLKSCCVPTKLRPMSMLYYDDGQNIIKKDIQNMIVEECGCS
- ability to replace bFGF in supporting undifferentiated growth of hESCs: can not replace bFGF

Source: patent US20080241919A1, “Defined media for pluripotent stem cell culture” (The Burnham Institute of Medical Research, priority 2003, published 2008)
